This note sets out measurements from patent WO2019076277A1 (dated 2019).

One test addresses T1, human LAG-3 protein (human, UniProt P18627 23-450, limits assumed).
T1 construct: also called human LAG-3 antigen; LAG-3 antigen
T1 sequence (looked up): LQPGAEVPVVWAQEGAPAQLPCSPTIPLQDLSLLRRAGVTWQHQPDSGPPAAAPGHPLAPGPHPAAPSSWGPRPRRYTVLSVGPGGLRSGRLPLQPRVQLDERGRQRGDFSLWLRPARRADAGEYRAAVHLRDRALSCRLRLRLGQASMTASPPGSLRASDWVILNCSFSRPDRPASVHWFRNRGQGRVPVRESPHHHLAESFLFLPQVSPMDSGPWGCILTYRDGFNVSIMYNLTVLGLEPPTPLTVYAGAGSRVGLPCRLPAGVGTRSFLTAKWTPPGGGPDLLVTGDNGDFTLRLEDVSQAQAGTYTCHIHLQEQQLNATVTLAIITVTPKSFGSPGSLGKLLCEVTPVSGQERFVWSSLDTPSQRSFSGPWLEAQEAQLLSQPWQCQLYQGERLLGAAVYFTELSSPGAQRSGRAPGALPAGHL
The experiment in a line: binding ELISA on human LAG-3 protein (Test Example 1).

Test [1] addresses T2, human LAG-3 full-length protein overexpressed on CHO-S cells (human, UniProt P18627 23-525).
T2 construct: whole, on cells; also called full-length LAG-3; CHO-S cells overexpressing the human LAG-3 full-length protein
T2 sequence (looked up): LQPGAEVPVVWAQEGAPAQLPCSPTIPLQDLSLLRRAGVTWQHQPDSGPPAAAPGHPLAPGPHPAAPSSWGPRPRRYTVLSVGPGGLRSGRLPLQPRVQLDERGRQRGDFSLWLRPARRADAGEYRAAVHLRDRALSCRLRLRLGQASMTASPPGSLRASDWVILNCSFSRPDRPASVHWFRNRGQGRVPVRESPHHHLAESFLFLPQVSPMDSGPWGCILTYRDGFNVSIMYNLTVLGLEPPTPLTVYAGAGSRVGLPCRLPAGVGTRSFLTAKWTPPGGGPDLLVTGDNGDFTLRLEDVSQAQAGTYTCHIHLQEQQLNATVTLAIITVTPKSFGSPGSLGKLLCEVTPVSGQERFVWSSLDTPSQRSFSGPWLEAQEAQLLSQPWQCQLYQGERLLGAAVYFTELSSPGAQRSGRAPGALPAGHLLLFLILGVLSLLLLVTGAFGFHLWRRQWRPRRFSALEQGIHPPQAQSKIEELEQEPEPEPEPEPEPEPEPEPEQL
The experiment in a line: cell ELISA on CHO-S cells overexpressing human LAG-3 (Test Example 2).

B1: mAb229 (antibody, V domains shown)
VH: QIQLVQSGPELKKPGETVKISCKASGYTFTTSGMSWVKQAPGKGLKWMGWINTYSGVPTYADDFKGRFAFSLETSASTAYLQINNLKNEDTATYFCARDNYDARDVYYYAMDYWGQGTSVTVSS
VL: DIQMTQSPASLSVSVGETVTITCRASENIYSNLAWYQQKQGKSPQLLVYAATNLADGVPSRFSGSGSGTQYSLKINSLQSEDFGSYYCQHFWITPWTFGGGTKLEIK
notes: also called LAG-3 antibody mAb229; hybridoma clone mAb229
As to B1, the binding result (in the test with human LAG-3 protein; in test [1]) was “binds” each time.

B2: mAb303 (antibody, V domains shown)
VH: EVQLQQSGPVLVKPGASVKMSCKASGYTLTDYYMNWVKQSHGKSLEWIGVINPYNGDTAYNQKFKGKATLTVDKSSNTAYMEINSLTSEDSAVYYCTRDDGYYDYYFDVWGTGTTVTVSS
VL: DIQMTQSPSSLSASLGERVILTCRASQDIGSRLNWLQQGPDGTFKRLIYATSTLDSGVPKRFSGSRSGSDFSLTISSLESEDFVDYYCLQLASSPPTFGGGTKLEIK
notes: also called LAG-3 antibody mAb303; hybridoma clone mAb303
Take B2: the binding result (with human LAG-3 protein; in test [1]) was “binds” in each case.
